From patent US20240165282A1, “CONFORMATIONAL CONSTRAINED SOMATOSTATIN RECEPTOR 3 PEPTIDE LIGANDS AND THEIR CONJUGATES AND USES THEREOF” (STARGET PHARMA LTD., priority 2021, published 2024)
*1 amine or outer side, *2 acyl side, *3 side chain or, on linkers, in order; H or OH if unused. Bridges are numbered along the chain shown (N, C = ends). Where no end group is shown, it is not given here. [ ]: non-standard residue; d: D form. N(2-mercaptoethyl)Gly = O=C(CN(CCS[*:3])[*:1])[*:2]

Design: species or system mice
Conditions: mouse, in vivo, iv
Protocol: As described in Example 1 above, the successful substitution of the arginine with lysine which preserved the high affinity selectivity of SEQ ID NO: 2 to SSTR-3 (as depicted in table 3) can improve this analog as a better candidate for radioligand therapy and diagnostic. SEQ ID NO: 4 and SEQ ID NO: 10 are the gallium labeled analogs of SEQ ID NO: 1 and SEQ ID NO: 2 respectively. Following their radiolabeling the radioligand were injected to anesthetized naïve mice by intravenous administration. The mice were subjected to PET-CT imaging aimed to assess the disposition profiles of the radioligands.

With “radiolabeled SEQ ID NO: 2 ([dF]KCF[dW]KTF[N(2-mercaptoethyl)Gly]-NH2; disulfide 3-9; not fully specified (N-terminus); also: radiolabeled)” the “clearance from the kidneys” value was “significantly higher clearance of the peptide from the kidneys in comparison to radiolabeled SEQ ID NO: 1”.
